Assay results from patent US9624471B2, “Methods for maturing cardiomyocytes and uses thereof” (UNIVERSITY OF WASHINGTON THROUGH ITS CENTER FOR …, priority 2013, dated 2017).

B1: Lin28a: Lin28a over-expressed in RUES2-CMs; LIN28 is the negative regulator of let-7 processing (protein, UniProt Q9H9Z2 2-209, looked up)
Protein lin-28 homolog A: GSVSNQQFAGGCAKAAEEAPEEAPEDAARAADEPQLLHGAGICKWFNVRMGFGFLSMTARAGVALDPPVDVFVHQSKLHMEGFRSLKEGEAVEFTFKKSAKGLESIRVTGPGGVFCIGSERRPKGKSMQKRRSKGDRCYNCGGLDHHAKECKLPPQPKKCHFCQSISHMVASCPLKAQQGPSAQGKPTYFREEEEEIHSPTLLPEAQN
B2: let-7g-E: modified hsa-let-7g with mutated GGAG LIN28 binding motif, SEQ ID NO: 12 (also SEQ ID NO: 16) (nucleic acid, listed as Homo sapiens)
chain: AGGCUGAGGUAGUAGUUUGUACAGUUUGAGGGUCUAUGAUACCACCCGGUACAUCAGAUAACUGUACAGGCCACUGCCUUGCCA
modifications: listed as RNA, chemistry not fully specified

Legend:
[1] = system: RUES2-CMs; assay: mRNA and miRNA qPCR analysis in transduced RUES2-CMs; type: cell-based, human; details: Lin28a OE hESC-CMs
Experimental: Undifferentiated human embryonic stem cell (hESCs) lines H7 (NIHhESCC-10-0061) and RUES2 (NIHhESC-09-0013) were expanded using mouse embryonic fibroblast-conditioned medium with 5 ng/ml basic fibroblast growth factor. H7-CMs were derived using previously reported protocols^1-3. RUES2-CMs were used for all functional analyses and these were derived using a cardiac progenitor cell differentiation protocol^4 derived from previously reported monolayer directed differentiation methods^1, 5, 6. In brief, this involves the induction of a monolayer of hESCs with activin A and bone morphogenetic protein-4 (BMP4) under serum- and insulin-free conditions. During the early stages of differentiation, the cells were also exposed to the Wnt agonist CHIR 99021 followed by the Wnt antagonist Xav939. From 7 days of in vitro differentiation, the cells were fed every alternate day with serum-free RPMI-B27 plus insulin media. After 20 days of in vitro differentiation, the cells were trypsinized and replated. Only those cell preparations that had at least 70% cardiac troponin T-positive CMs (as observed by flow cytometry) were used for further experiments. For experiments where the H7-CMs were cultured for around a year, the cells were replated after the 3rd and 11th month from day 0. […] The samples were analyzed at day 30 from the initiation of differentiation. […]

[2] = system: RUES2-CMs; assay: Immunocytochemistry (α-actinin staining) and morphological analysis of lentivirally transduced cardiomyocytes; type: cell-based, human; details: Lin28a OE CMs compared to EV control
Experimental: Undifferentiated human embryonic stem cell (hESCs) lines H7 (NIHhESCC-10-0061) and RUES2 (NIHhESC-09-0013) were expanded using mouse embryonic fibroblast-conditioned medium with 5 ng/ml basic fibroblast growth factor. H7-CMs were derived using previously reported protocols^1-3. RUES2-CMs were used for all functional analyses and these were derived using a cardiac progenitor cell differentiation protocol^4 derived from previously reported monolayer directed differentiation methods^1, 5, 6. In brief, this involves the induction of a monolayer of hESCs with activin A and bone morphogenetic protein-4 (BMP4) under serum- and insulin-free conditions. During the early stages of differentiation, the cells were also exposed to the Wnt agonist CHIR 99021 followed by the Wnt antagonist Xav939. From 7 days of in vitro differentiation, the cells were fed every alternate day with serum-free RPMI-B27 plus insulin media. After 20 days of in vitro differentiation, the cells were trypsinized and replated. Only those cell preparations that had at least 70% cardiac troponin T-positive CMs (as observed by flow cytometry) were used for further experiments. For experiments where the H7-CMs were cultured for around a year, the cells were replated after the 3rd and 11th month from day 0. At the 11th month, FACS analysis for cTnT was conducted and the CMs were split into three parts and were cultured as three independent replicates for another 1.5 months after which they were harvested for RNA extraction. IMR90iPSC-CMs cultured for 1 yr were replated at day 20 and split every 2 months for 12 months before harvesting for RNA extraction. To generate engineered cardiac tissue, the inventors used the procedure reported by Tulloch et al.^2 In brief, day 20 CMs are suspended in the collagen gel at 10,000/μl, and rod-shaped constructs of 25 μl (1 mm radius×8 mm length) were generated by casting in a preformed mold and warming to 37° C. The ends of the mold contain Velcro-like micro-fiber loops, and these become impregnated with gel+cell mixture. These tabs allow the constructs to be maintained under static tension, which facilitates alignment and differentiation of the CMs. The constructs were maintained in the serum-free RPMI-B27 plus glutamine media up to 2 weeks. For let-7 overexpression analysis, the CMs were transduced with the virus carrying the pLKO-let-7 or empty vector control pLKO plasmid at day 12 of the directed differentiation protocol. After overnight transduction the virus was removed, cells were rinsed with PBS and new media added. The samples were analyzed at day 30 from the initiation of differentiation.
All morphological analyses were carried out using at least 50 cells. Cells replated in chamber slides were fixed in 4% paraformaldehyde for 15 minutes followed by PBS wash. The fixed cells were blocked for an hour with 1.5% normal goat serum and incubated O/N with mouse alpha actinin (sigma) primary antibody. The primary antibody was rinsed with PBS and incubated with secondary antibody (Alexa fluor 488 [Goat anti mouse]) for an hour followed by nuclear staining using DAPI. For cell area and perimeter measurements, images were acquired and processed using ZEISS™ AXIO fluorescent microscope and AXIOVISION™ software. For sarcomere length, images were acquired and processed using LEICA™ TCS-SPE confocal microscope and LEICA™ software. These confocal images were used to select 1-2 myofibrils per cell with at least ten continuous, well-recognized alpha-actinin bands and divided the length value by the number of sarcomeres. The images were further analyzed using IMAGE J™ software.
For lenti-let-7 OE constructs, Pri-miR-let-7i and pri-miR-let-7g sequence was amplified from H7 genomic DNA using forward primer for let-7i-TCCGCGTGGTCCCGT; reverse primer for let-7i-ATTGTCCTCCGCGGCGC and forward primer for let-7g-AGAGTTCCTCCAGCGCTCC; reverse primer for let-7g-CCCCACTTGGCAGCTGGC, resulting in 153 bp and 154 bp products, respectively. […]

[3] = system: HECT293FT cells; assay: Lipofectamine transient transfection of plko-let-7g and plko-let-7g-E plasmids, mature let-7g and target expression after 24 hrs; type: cell-based; details: 24 hrs after transfection
Experimental: FIGS. 20A-20B Modified let-7g (let-7g-E) is more efficient in generating mature let-7g in HECT293FT cells. Let-7g and a modified version of let-7g (plko-let-7g-E) were induced in hect 293 FT cells by introducing plko-let-7g and plko-let-7g-E plasmids with lipofectamine transient transfection assay. 24 hrs after transfection, cells were tested for mature let-7g expression. […] (FIG. 20B) Targets of let-7 are repressed when we over-express let-7g-E similar to that seen during over-expression of let-7g.

| Molecule | let-7i and let-7g expression [1] | cell area [2] | circularity index [2] | sarcomere length [2] | cell perimeter ([2]; N=50 cells per condition) | Targets of let-7 expression [3] | mature let-7g expression ([3]; compared to EV and native let-7g) |
| --- | --- | --- | --- | --- | --- | --- | --- |
| B1 | down-regulated | significant decrease | increase | significant decrease | significant decrease | – | – |
| B2 | – | – | – | – | – | repressed | much higher expression |
